Reference: US20110086767A1, “MUTANTS OF GLYCOSIDE HYDROLASES AND USES THEREOF FOR SYNTHESIZING COMPLEX OLIGOSACCHARIDES AND DISACCHARIDE INTERMEDIATES” (Institut Pasteur, priority 2008, published 2011)
Substitutions are numbered along the chain they refer to. Numbers in names are those of the source.

Tests used:
[1] = tested on: OC[C@H]1O[C@@](CO)(O[C@H]2O[C@H](CO)[C@@H](O)[C@H](O)[C@H]2O)[C@@H](O)[C@@H]1O; test: Kinetic parameters towards sucrose donor, double mutant A289P-F290L; assay type: biochemical, Neisseria polysaccharea; conditions: other: sucrose donor (0-500 mM), Eadie-Hofstee plot, 30° C., pH 7.0
Experimental: (§1) The double mutants A289P-F290C, A289P-F290I and A289P-F290L were produced and purified, as previously described in Example 1-1. The protein content was determined by the Nanodrop ND-1000 spectrophotometer. These mutants were tested on sucrose alone or supplemented with α-D-GlcpNAc-OAll acceptor, and compared to wtAS and F290K. Assays were performed at 30° C. in 50 mM Tris-HCl buffer, pH=7.0.
(§2) Enzyme assays were carried out in a total volume of 2 mL containing pure enzyme (0.073 mg, 0.153 mg and 0.092 mg when using A289P-F290C, A289P-F2901 and A289P-F290L, respectively).
(§3) Kinetic studies of AS variants were performed in the presence of sucrose (0-500 mM). At regular time intervals (2-5 min), aliquots (200 μL) were removed, heated (95° C., 2 min) and centrifuged (18000 g, 5 min) All the samples were filtered on a 0.22 μm membrane and analyzed using HPLC material previously described. The initial rate of sucrose consumed, corresponding to the initial rate of fructose released, was expressed in mole of fructose released per minute and per gram of enzyme. The kinetic parameters kcat and Km were calculated using Eadie-Hofstee plot.

[2] = tested on: OC[C@H]1O[C@@](CO)(O[C@H]2O[C@H](CO)[C@@H](O)[C@H](O)[C@H]2O)[C@@H](O)[C@@H]1O; test: Kinetic parameters towards sucrose donor, double mutant A289P-F290I; assay type: biochemical, Neisseria polysaccharea; conditions: other: sucrose donor (0-500 mM), Eadie-Hofstee plot, 30° C., pH 7.0
Experimental: as §1, §2, §3

[3] = tested on: OC[C@H]1O[C@@](CO)(O[C@H]2O[C@H](CO)[C@@H](O)[C@H](O)[C@H]2O)[C@@H](O)[C@@H]1O; test: Kinetic parameters towards sucrose donor, double mutant A289P-F290C; assay type: biochemical, Neisseria polysaccharea; conditions: other: sucrose donor (0-500 mM), Eadie-Hofstee plot, 30° C., pH 7.0
Experimental: as §1, §2, §3

[4] = tested on: Neisseria polysaccharea amylosucrase 1G5A (parent SEQ ID NO: 13) variants A289P-F290C, A289P-F290I and A289P-F290L; test: Kinetic parameters towards α-D-GlcpNAc-OAll acceptor, the three double mutants stated together; assay type: biochemical; conditions: sucrose 250 mM
Experimental: as §1
(§4) Enzyme assays were carried out in a total volume of 2 mL containing pure enzyme (0.037 mg, 0.076 mg and 0.046 mg when using A289P-F290C, A289P-F2901 and A289P-F290L, respectively).
(§5) The kcat/Km (α-D-GlcpNAc-OAll) value was calculated from the initial rate of formation of desired disaccharide (α-D-Glcp-(1→4)-α-D-GlcpNAc-OAll), corresponding to the initial rate of α-D-GlcpNAc-OAll consumed. As saturation was not achieved with the mutants, efficiency was calculated by linear regression analysis of the velocity versus substrate concentration plot.

[5] = data from ref. 83, cited from earlier work
[6] = Kinetic parameters towards α-D-GlcpNAc-OAll acceptor; assay type: biochemical; conditions: 250 mM for both sucrose and α-D-GlcpNAc-OAll
Experimental: as §4, §5

[7] = HPLC screening of the single-mutant amylosucrase library for glucosylation of D-GlcpNAc; assay type: biochemical
Experimental: The protocol was established to enable the rapid identification of clones for which D-GlcpNAc glucosylation was improved. To obtain higher amounts of enzymes and facilitate detection of glucosylated compounds upon HPLC screening, mutants were produced in 96-DeepWell Format plates. Storage microplates containing monomutants were thawed and replicated to inoculate a starter culture in 96-well microplates containing, in each well, 150 μL LB medium supplemented with ampicillin (100 μg/mL). After growth for 24 h at 30° C. under agitation (200 rpm), plates were duplicated into 96-Deep Well plates containing, in each well, 1.1 mL LB medium supplemented with ampicillin (100 μg/mL) and IPTG (1 mM) to induce GST-AS expression. Cultures were then grown for 24 h at 30° C. under agitation (200 rpm). Plates were centrifuged (20 min, 3000 g, 4° C.) and the supernatant was removed. The cell pellet was resuspended in 200 μL of lysozyme (0.5 mg/mL), followed by freezing at −80° C. for 8 to 12 h. After thawing at room temperature, 100 μL of sucrose and 100 μL of acceptor (each at a final concentration of 73 mM) were added to each well. Enzymatic reaction was incubated at 30° C. during 24 h under agitation. The DeepWell plates were then centrifuged (20 min, 3000 g, 4° C.) and 300 μL of the supernatant was transferred to a filter micro-plate (PVDF 0.2 μm) to be clarified. […]
Efficiency of the glucosylation reaction was evaluated by HPLC analysis of the acceptor reaction product synthesized when using D-GlcpNAc as acceptor using a Dionex P 680 series pump, a Shodex RI 101 series refractometer, a Dionex UVD 340 UV/Vis detector and an autosampler HTC PAL. […]
For each of the 7 selected positions, 19 single mutants were generated (corresponding to each possible amino acid change). […] Both sucrose consumption and disaccharide formation were determined in order to calculate the glucosylation rate defined as the molar ratio of monoglucosylated acceptor versus/sucrose consumed.

[8] = HPLC screening of double-mutant libraries for variants able to glucosylate D-GlcpNAc; assay type: biochemical; conditions: α-D-Glcp-(1→4)-α-D-GlcpNAc (ED) from sucrose and D-GlcpNAc, microplate format
Experimental: The protocol was established to enable the rapid identification of clones for which D-GlcpNAc glucosylation was improved. To obtain higher amounts of enzymes and facilitate detection of glucosylated compounds upon HPLC screening, mutants were produced in 96-DeepWell Format plates. Storage microplates containing monomutants were thawed and replicated to inoculate a starter culture in 96-well microplates containing, in each well, 150 μL LB medium supplemented with ampicillin (100 μg/mL). After growth for 24 h at 30° C. under agitation (200 rpm), plates were duplicated into 96-Deep Well plates containing, in each well, 1.1 mL LB medium supplemented with ampicillin (100 μg/mL) and IPTG (1 mM) to induce GST-AS expression. Cultures were then grown for 24 h at 30° C. under agitation (200 rpm). Plates were centrifuged (20 min, 3000 g, 4° C.) and the supernatant was removed. The cell pellet was resuspended in 200 μL of lysozyme (0.5 mg/mL), followed by freezing at −80° C. for 8 to 12 h. After thawing at room temperature, 100 μL of sucrose and 100 μL of acceptor (each at a final concentration of 73 mM) were added to each well. Enzymatic reaction was incubated at 30° C. during 24 h under agitation. The DeepWell plates were then centrifuged (20 min, 3000 g, 4° C.) and 300 μL of the supernatant was transferred to a filter micro-plate (PVDF 0.2 μm) to be clarified. Supernatant filtration was carried out by centrifugation of the filter micro-plate (5 min, 2000 g, 4° C.) into a novel microplate for screening.
The method for the expression of the mutant libraries is described in Example 1-1.
Acceptor reaction products were analyzed by HPLC analysis using a C18-AQ column (Bischoff C18, 125×4 mm, 3 μm) kept at room temperature and eluted with 0.6 mL/min of ultra-pure water to detect α-D-Glcp-(1→4)-α-D-GlcpNAc formation (analysis time: 7 min). To evaluate the efficiency of the glucosylation reaction, it was carried out complementary HPLC analyses with a Biorad HPX-87K Carbohydrate Analysis column (maintained at 65° C., and eluted at a flow rate of 0.6 mL/min with ultra-pure water). By this way, it was possible to measure sucrose consumption by RI detection and concomitant α-D-Glcp-(1-4)-α-D-GlcpNAc formation by UV220 nm and determine mutant ability to synthesize the desired disaccharide α-D-Glcp-(1→4)-α-D-GlcpNAc (i.e., % Glucosyl units transferred onto acceptor derivatives=[Glucosyl units transferred onto acceptor derivatives]/[Glucosyl units transferred from initial sucrose]×100)
All clones producing sucrose-utilizing variants were then picked and cultured in 96-well microplates. Following cell lysis, the acceptor reaction in the presence of D-GlcpNAc was then carried out in microplate format. HLPC analysis time for each clone was reduced to 7 min for detection of α-D-Glcp-(1→4)-α-D-GlcpNAc. When disaccharide formation was detected, complementary analyses were performed to determine sucrose consumption and disaccharide formation with more accuracy in order to calculate the glucosylation yield.

[9] = Glucosylation of α-D-GlcpNAc-OAll by purified F290D, F290K and ASNPwt (146 mM sucrose + 146 mM acceptor); assay type: biochemical; conditions: purified enzyme; Sucrose=Acceptor=146 mM; compared with ASNPwt
Experimental: All assays were performed at 30° C. in 50 mM Tris buffer, pH=7.0. For the acceptor reactions, F290D, F290K and ASNPwt (1G5A) were tested on α-D-GlcpNAc-OAll.
Comparison of products synthesized by wild-type and AS variants. Reactions were performed in the presence of 146 mM sucrose alone or supplemented with 146 mM acceptor. The purified wild-type or mutated GST/AS were employed at 0.5 U/mL. The reactions were stopped by heating at 95° C. for 5 min. The final mixture was centrifuged at 18 000 g for 10 min, filtered on 0.22 μm membrane and analyzed by HPLC, as previously described.
Soluble and insoluble oligosaccharides produced during the reaction were identified by HPAEC using a Dionex Carbo-Pack PA100 column at 30° C. Before analysis, the insoluble fraction was solubilized in KOH at a final total sugar concentration of 10 g/kg. Mobile phase (150 mM NaOH) was set at 1 mL/min flow rate with a sodium acetate gradient (going from 6 to 500 mM within 120 min). Detection was performed using a Dionex ED40 module with a gold working electrode and an Ag/AgCl pH reference. Note that α-D-GlcpNAc-OAll (acceptor) and its derivatives are not oxidable products and thus are not detectable by HPAEC. Sucrose, glucose, fructose, α-D-GlcpNAc-OAll (acceptor) and its derivatives (glucosylation products) were quantified by HPLC, as previously described

Molecule: Neisseria polysaccharea amylosucrase 1G5A (parent SEQ ID NO: 13) variant A289P-F290L (Neisseria polysaccharea; A297P/F298L/G545D)
- Km [1]: 10.1 mM

Molecule: Neisseria polysaccharea amylosucrase 1G5A (parent SEQ ID NO: 13) variant A289P-F290I (Neisseria polysaccharea; A297P/F298I/G545D)
- Km [2]: 17.2 mM

Molecule: Neisseria polysaccharea amylosucrase 1G5A (parent SEQ ID NO: 13) variant A289P-F290C (Neisseria polysaccharea; A297P/F298C/G545D)
- Km [3]: 18.9 mM

Molecule: C=CCO[C@H]1O[C@H](CO)[C@@H](O)[C@H](O)[C@H]1NC(C)=O [α-D-GlcpNAc-OAll, allyl 2-acetamido-2-deoxy-α-D-glucopyranoside]
- increase of catalytic efficiency towards α-D-GlcpNAc-OAll compared to variant F290K ([4]; three double mutants vs F290K): 3 fold
- increase of catalytic efficiency towards α-D-GlcpNAc-OAll compared to wtAS ([4]; three double mutants vs wtAS): ≤ 395 fold

B1: wtAS: Wild type glycoside hydrolase: amylosucrase 1G5A from Neisseria polysaccharea, SEQ ID NO: 13 (protein, listed as Neisseria polysaccharea)
chain: SPNSQYLKTRILDIYTPEQRAGIEKSEDWRQFSRRMDTHFPKLMNELDSVYGNNEALLPMLEMLLAQAWQSYSQRNSSLKDIDIARENNPDWILSNKQVGGVCYVDLFAGDLKGLKDKIPYFQELGLTYLHLMPLFKCPEGKSDGGYAVSSYRDVNPALGTIGDLREVIAALHEAGISAVVDFIFNHTSNEHEWAQRCAAGDPLFDNFYYIFPDRRMPDQYDRTLREIFPDQHPGGFSQLEDGRWVWTTFNSFQWDLNYSNPWVFRAMAGEMLFLANLGVDILRMDAVAFIWKQMGTSCENLPQAHALIRAFNAVMRIAAPAVFFKSEAIVHPDQVVQYIGQDECQIGYNPLQMALLWNTLATREVNLLHQALTYRHNLPEHTAWVNYVRSHDDIGWTFADEDAAYLGISGYDHRQFLNRFFVNRFDGSFARGVPFQYNPSTGDCRVSGTAAALVGLAQDDPHAVDRIKLLYSIALSTGGLPLIYLGDEVGTLNDDDWSQDSNKSDDSRWAHRPRYNEALYAQRNDPSTAAGQIYQDLRHMIAVRQSNPRFDGGRLVTFNTNNKHIIGYIRNNALLAFGNFSEYPQTVTAHTLQAMPFKAHDLIGGKTVSLNQDLTLQPYQVMWLEIA
- V250mM (initial rate of sucrose consumption) ([5]; 250 mM sucrose): 900 µmol/min/g
- behaviour (at high concentration) ([5]; sucrose donor): saturation
- V250mM (initial rate of acceptor consumption) [6]: 290 µmol/min/g
- glucosylation rate (formation of α-D-Glcp-(1→4)-D-GlcpNAc) ([7]; molar ratio of monoglucosylated acceptor versus sucrose consumed, sucrose and D-GlcpNAc 73 mM each, 30° C., 24 h, microtiter format): 2%
- Glusosylation Yield to synthesize ED [8]: 2%

B2: F290D: single mutant F290D of N. polysaccharea amylosucrase 1G5A (protein)
chain: B1 chain with F290D
- increase of glucosylation rate compared to the wild type ([7]; acceptor D-GlcpNAc): 45 fold
- times more efficient for α-D-GlcpNAc-OAll glucosylation [9]: 10 times
- times more efficient to form α-D-Glcp-(1→4)-D-GlcpNAc-OAll [9]: 20 times
